Results published in the RNAGym collection of RNA variant scans (doi:10.1073/pnas.2313332121).
Fewer inactive variants are shown than the library holds.

B1: TPR 5TU (parent)
chain: GGAUCUUCUCGAUCUAACAAAAAAGACAAAUCUGCCACAAAGCUUGAGAGCAUCUUCGGAUGCAGAGGCGGCAGCCUUCGGUGGCGCGAUAGCGCCAACGUUCUCAACUAUGACACGCAAAACGCGUGCUCCGUUGAAUGGAGUUUAUCAUG

Variants of: B1
Assay: polymerase ribozyme fitness, log enrichment relative to wild type (log ratio); higher = more active; in vitro selection for triplet polymerase activity
In short: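 Fitness measures genotype enrichment against wild-type enrichment on a logarithmic scale, with inverse-variance-weighted averaging of replicates. The logarithm is base 2, and genotypes were kept only with ≥10 input reads and ≥1 read per output in Illumina sequencing. The sequenced libraries came from one triplicate in vitro selection round, including frozen incubation at −7 °C, of PCR-built, transcribed mutant libraries of each subunit of a heterodimeric triplet polymerase ribozyme.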
For GGAUCUUCUCGAUCUAGCAAAAAAGACAAAUCUGCCACAAAUCUUGAGAGUAUCUUCGGAUGCAGAGGCGGCAGCCUUCGGUGGCGCGAUAGCGCUAACGUUCUCAAUUAUGACACGCAAAACGCGUGCUCCGUUGAAUGGAGUUUAUCAUG [A17G G42U C51U C96U C108U], the “polymerase ribozyme fitness (log ratio)” value was ≤ -4.2. With GGAUCUUCUCGAUCUAGCAAAAAAGAUAAAUCUGCCACAAUGCUUGAGAGCAUCUUCGGAUGCAGAGGCGGCAGCCUUCGGUGGCGCGAUAGCGCCAACGUUCUCAACUAUGACACGCAAAACGCGUGCUCCGUUGAAUGGAGUUUAUCAUG [A17G C27U A41U] the “polymerase ribozyme fitness (log ratio)” value was -1.51. In the case of GGAUCUUCUCGAUCUAUCAGAAAAGACAAAUCUGCCACAAAGCUUGAGAGCAUCUUCGGAUGGAGAGGCGGCAGCCUUCGGUGGCGCGAUAGCGCCAACGUUCUCAACUAUGACACGCAAAACGCGUGCUCCGGUGAAUGGAGUUUAUCAUG [A17U A20G C63G U134G], the “polymerase ribozyme fitness (log ratio)” value is reported as -3.43. In the case of GGAUCUUCUCGAUCUAGCAAAAAAGACAAAUCUGCCACAAAGCUUGAGAGCAUCUUCGGAUGCAGAGGCGGCAGCCUUCGGUGGUGCGAUAGCGCCAACGUUCUCAACUAUGACACGCAAAACGCGUGCUCCGUUGAAUGGAGUUUAUCAUG [A17G C85U], the “polymerase ribozyme fitness (log ratio)” value is reported as -1.27. In the case of GGAUCUUCUCGAUCUAGCAAAAAAGACAAAUCUGCCACAAAGCUUGAGAGCAUCUUCGGAUGCAGAGGCGGCAGACUUCGGUGGCGAGAUCGCGCCAACGUUCUCAACUAUGACUCGCAAAACGCGUGCUCCGUUGAAUUGAGUUUAUCAUG [A17G C75A C87A A91C A115U G140U], the “polymerase ribozyme fitness (log ratio)” value is reported as ≤ -4.2. In the case of GGAUCUUCUCGAUCUAGCAAAAAAGACAAAUCUGCCACAAAGCUUGAGAGCAUCUUCGGAUGCAGAGGAGGCAGCCUUCGGGGGCCCGAUAGCGCCAACGUUCUCAACUAUGACACUCAAAACGCGUGCUCCGUUGAAUCGAGUAUAUCAUG [A17G C69A U82G G86C G117U G140C U145A], the “polymerase ribozyme fitness (log ratio)” value is reported as ≤ -4.2. For GGAUCUUCUCGAUCUAGCAAAAAAGACAAAUCUGCCACAAAGCUUGAGAGCAUCUUCGGAUGCAGAGGCGGCAGCCUUCGGUGGCGCGAUAGCGCCAACGUUCUCAACUAUGACACGCAAAACGCGUGCUCCGAUGAAUGGAGUUUAUCAUG [A17G U134A], the “polymerase ribozyme fitness (log ratio)” value was -2.69. For GGAUCUUCUCGAUCUAGCAAAAAAGACAAAUCUGCCACAAAGCUUGAGAGCAUCUUCGGAUGCAGAGGCGGCAGCCUUCGGUGGCGUGAUAGCGCCAACGUUCUCAACUAUGACACGCAAAACGCGUGCUCCGUUGAAUGGAGUUUAUCAUG [A17G C87U], the “polymerase ribozyme fitness (log ratio)” value was -0.0232. In the case of GGAUCUUCUCGAUCUAGCAAAAAAGACAAAUCUGCCACAAAGCUUGAGAGCAUCUUCGGAUGCAGAGGCGGCAGCAUUCGGUGGCGCGAUAGCGCCAACGUUCUCAACUAUGACACGCUAAACGCGUGCUCCGUUGAAUGGAGUUUAUCAUG [A17G C76A A119U], the “polymerase ribozyme fitness (log ratio)” value is reported as -0.0837. For GGAUCUUCUCGAUCUAGCAAAAAAGACAAAUCUGCCACAAAGCUUGAGAGCAUCUUCGGAUGCAGAGGCGGCAGCCUUCGGUGGCACGAUAGUGCCUACGUUCUCAACUAUGACACGCAAAACGCGUGCUCCGUUGAAUGGAGUUUAUCAUG [A17G G86A C93U A97U], the “polymerase ribozyme fitness (log ratio)” value was 0.0217. For GGAUCUUCUCGAUCUAGCAAAAAAGAAAUAUCUGCCACAAAGCUUGAGAGCAUCAUCGGAUGCGGAGGCGGCAGCCUUAGGUGGCGCGAUAGUGCCAGCUUUCUCAACUAUGACACGCAAAACGCGUGCUCCGUUAAAUGGAGUUUAUCAUG [A17G C27A A29U U55A A64G C79A C93U A98G G100U G136A], the “polymerase ribozyme fitness (log ratio)” value was ≤ -4.2. For GGAUCUUCUCGAUCUAGCAAAAAAGACAAAUCUGCCACAAAGCUUGAGAGCAUCUUCGGAUGCAGAGGCGGCAGCCUUCGGUGUCGCGAUAGCGCCAACGUUCUCAACUAUGACACGCAAAACGCGUGCUCCGUUGAAUGGAGUUUAUCAUG [A17G G84U], the “polymerase ribozyme fitness (log ratio)” value was -2. For GGAUCUUCUCGAUCUAGCAAAAAAGACAAAUCUGCCACAAAGCUUGAGAGCAUGUUCGGAUGCAGAGGCGGCAGCCUUCGGUGGCGCGAUAGGGCCAACGUUCUCGACUAUGACACGCAAAACGCUUGCUCCGUUGAAUGUAGCUUAUCAUG [A17G C54G C93G A106G G126U G141U U144C], the “polymerase ribozyme fitness (log ratio)” value was ≤ -4.2. For GGAUCUUCUCGAUCUAGCAAAAAAGACAAAUCGGCCACAAAGCUUGAGAUCUUCUUCGGAUGCAGAGGCGGCAGCCUUCGGUGGCCCGAUAGCGCCAACGUUCUUCACUAUGACACGCAAAACGAGUGCUCCGUUGAAUGGAGUUUAUCAUG [A17G U33G G50U A52U G86C C105U A106C C125A], the “polymerase ribozyme fitness (log ratio)” value was ≤ -4.2. In the case of GGAUCUUCUCGAUCUAGCAAAAAAGAGAAAUCUGCCACAAAGUUUGAGAGCAUCUUCGGAUGCAGAGGCGGCAGCCUUCGGUGGCGGGCUAGCGCCAACGUUCUCAACAAUGACACGCAAAACGCGUGCUCCGUUGAAUGGAGUUUUUCAUG [A17G C27G C43U C87G A89C U109A A147U], the “polymerase ribozyme fitness (log ratio)” value is reported as ≤ -4.2. For GGAUCUUCUCGAUCUAGCAAAAAAGACAAAACUGCCACAAAGCUUGAGAGCAUCUUCGGAUGCAGAGGCGGCAGCCUUCGGUGGCGCGAUAGCGCCAACGUUCUCAACUAUGACACGCAAAACGCGUGCUCCGUUGAAUGGAGUUUAUCAUG [A17G U31A], the “polymerase ribozyme fitness (log ratio)” value was 0.512. In the case of GGAUCUUCUCGAUCUAUCAAAAAUGACAAAUCUGCCACAAAGCUUGAGAGCGUCUUUGGAUGCAGAGGCGGCAGCCUUCGGUGGCGCGAUAGCGCGAACGUUCUCAACUAUGACACGCAAAACGCGUGCUCCGUUGAAUAGAGUUUAUCAUG [A17U A24U A52G C57U C96G G140A], the “polymerase ribozyme fitness (log ratio)” value is reported as ≤ -4.2. In the case of GGAUCUUCUCGAUCUAGCAAAAAAGACAAAUCUGCCACAAAGCUUGAGAGCAUCUUUGGAUGCAGAGGAGGCAGCCUUCGGUGGCGCGAUAGCGCCAACAUUCUCAACUAUGACACGCAAAACGCGUGCUCCGUUGAAUGGAGUUUAUCAUG [A17G C57U C69A G100A], the “polymerase ribozyme fitness (log ratio)” value is reported as ≤ -4.2. For GGAUCUUCUCGAUCUAGCAAAAAAGACAAAUCUGCCACAAAGCUUGAGAGCAUCUUCGGAUGUAGAGGCGGCAGCCUUCGGUGGCGCCAUAGCGCCAACGUUCUCAACUAUGACACGCAAAACGCGUGCUCCGUUGAAUGGAGUUUAUCAUG [A17G C63U G88C], the “polymerase ribozyme fitness (log ratio)” value was ≤ -4.2.
